The values that follow come from article PMC5376981 (Scientific Reports, 2014).

For orientation: Kd means the constant that tells how readily two partners part at equilibrium. As usually defined, the koff is the rate constant with which the complex falls apart. For orientation: kon means the second-order rate constant of association.

The target of test [1] is native VAR2CSA on FCR3-CSA infected erythrocytes (Plasmodium falciparum FCR3, UniProt Q6UDW7, strain). The test can be described thus: flow cytometry on cells. (Flow cytometry measures light scatter and fluorescence of single cells or particles in a stream.)
Test [2] addresses native VAR2CSA on NF54-CSA infected erythrocytes (Plasmodium falciparum NF54 (parent of …, UniProt Q8I639, strain)). In words: flow cytometry on cells.
The target of test [3] is 3D7-DBL1X (Plasmodium falciparum 3D7, UniProt Q8I639, strain). In words: ELISA. For orientation: In an ELISA, binding on a coated surface is turned into a signal by an enzyme label.
The target in test [4] is 3D7-DBL2X (Plasmodium falciparum 3D7, UniProt Q8I639, strain). The test can be described thus: ELISA.
In test [5] the target is FCR3-DBL3X (Plasmodium falciparum FCR3, UniProt Q6UDW7, strain). The test can be described thus: ELISA.
Test [6] deals with 3D7-DBL1X-3X (Plasmodium falciparum 3D7, UniProt Q8I639, strain). In words: ELISA.
The target in test [7] is full-length VAR2CSA recombinant protein (3D7-DBL1X-6ε) (Plasmodium falciparum 3D7, UniProt Q8I639, strain). The test can be described thus: SPR. Background: In SPR one partner is held on a chip, and binding of the other changes the refractive index at the surface.
Test [8] addresses FCR3-DBL3X-4ε (Plasmodium falciparum FCR3, UniProt Q6UDW7, strain). In words: ELISA.
Test [9] has as its target 3D7-DBL5ε (Plasmodium falciparum 3D7, UniProt Q8I639, strain). The test can be described thus: ELISA.
The target in test [10] is FCR3-DBL6ε (Plasmodium falciparum FCR3, UniProt Q6UDW7, strain). In words: ELISA.
The target of test [11] is 3D7-DBL6ε (Plasmodium falciparum 3D7, UniProt Q8I639, strain). In words: ELISA.

B1: VHH874 (VHH)
VHH: QVQLQESGGGLVQAGGSLRLSCAASGRAFSDYAMGWFRQAPGKERDFVAAISWNGGNTYYSDSVKGRFTISRDNAKNTVYLQMNSLKPEDTAVYYCAANDLAVPELLMPRVETYDYWGQGTQVTVSS
For B1, the binding result in test [1] is “binds”; in test [2], “binds”; in test [3], “binds”; in test [4], “no binding (tested: 0.3 µg/ml)”; in test [5], “no binding (tested: 0.3 µg/ml)”; in [6], “binds”.

B2: VHH861 (VHH)
VHH: QVQLQESGGGLVQAGGSLRLSCAFSGSIFKMGWYRQAPGKERELVATITHIGVTDYAEFVKGRFTISRDNAKNTVYLLMNSLKPEDTAVYYCNVASRWPDYWGQGTQVTVSS
B2: the dissociation constant Kd in [7] worked out at 35 nM. For the same molecule, the off-rate constant (koff) in test [7] came to 0.001 s⁻¹. Moreover, in test [7], the kon is 29000 M⁻¹ s⁻¹. Further, the binding result in test [8] is on record as “binds”; in [9], “no binding (tested: 0.3 µg/ml)”; in [10] it was “no binding (tested: 0.3 µg/ml)”; in test [11], “no binding (tested: 0.3 µg/ml)”.
